In patent US20200199236A1 (BIO THERA SOLUTIONS, published 2020):

B1: Rituximab (antibody, V domains shown)
VH: QVQLQQPGAELVKPGASVKMSCKASGYTFTSYNMHWVKQTPGRGLEWIGAIYPGNGDTSYNQKFKGKATLTADKSSSTAYMQLSSLTSEDSAVYYCARSTYYGGDWYFNVWGAGTTVTVSA
VL: QIVLSQSPAILSASPGEKVTMTCRASSSVSYIHWFQQKPGSSPKPWIYATSNLASGVPVRFSGSGSGTSYSLTISRVEAEDAATYYCQQWTSNPPTFGGGTKLEIK
B2: BAT4306F (antibody, human IgG1)
light: DIVMTQTPLSLPVTPGEPASISCRSSKSLLHSNGITYLYWYLQKPGQSPQLLIYQMSNLVSGVPDRFSGSGSGTDFTLKISRVEAEDVGVYYCAQNLELPYTFGGGTKVEIKR
heavy: not shown
modifications: N-linked oligosaccharide without fucose (produced in FUT8 knockout CHO-2G8 / CHO-BAT-KF cells)
notes: Humanized anti-CD20 IgG with B-HH6 heavy and B-KV1 light variable regions from B-Ly1 (WO2005044859); Non-fucosylated glycoform; also called carbohydrate chain modified BAT4306F

How the values were obtained:
[1] = molecular target: T1, CD20 (UniProt P11836 1-297, limits assumed); experiment: flow cytometry on Wil2-s cells; Kd=[Ab]*{Fmax/(F-Fback)-1}
T1 construct: whole, on cells; Endogenous CD20 on Raji and Wil2-s cell lines; also called CD20 on Raji cells; CD20 on Wil2-s cells
T1 sequence (looked up): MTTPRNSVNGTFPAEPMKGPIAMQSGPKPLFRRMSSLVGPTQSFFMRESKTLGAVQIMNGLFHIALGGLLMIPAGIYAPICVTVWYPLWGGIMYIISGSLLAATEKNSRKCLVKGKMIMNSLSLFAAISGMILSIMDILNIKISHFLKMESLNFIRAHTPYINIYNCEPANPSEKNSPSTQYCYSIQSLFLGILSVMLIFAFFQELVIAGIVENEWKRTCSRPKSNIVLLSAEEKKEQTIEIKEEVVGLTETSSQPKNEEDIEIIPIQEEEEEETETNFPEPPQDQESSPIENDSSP

[2] = molecular target: T1, CD20; experiment: flow cytometry; Mean Kd over Raji and Wil2-s cells
[3] = molecular target: T1, CD20; experiment: flow cytometry, antibody titrated on Raji cells, FITC anti-human IgG1 Fab secondary
[4] = molecular target: T1, CD20; experiment: flow cytometry, antibody titrated on Wil2-s cells, FITC anti-human IgG1 Fab secondary
[5] = molecular target: T1, CD20; experiment: flow cytometry on Raji cells; Kd=[Ab]*{Fmax/(F-Fback)-1}
[6] = molecular target: T2, FcγRIIIa 158V (UniProt P08637 17-208, biotin-labeled (site not stated)); experiment: biosensor with SA sensor, biotin-FcγRIIIa 158V loaded, antibody in solution (7 concentrations, 2x gradient from 500 nM)
T2 construct: also called biotin-labeled FcγRIIIa 158V
Method: The sensor was pre-wetted in PBS for 10 min. […] AB solution, […], regeneration buffer, drug diluent and neutralization buffer were sequentially added to the corresponding columns of a 96-well plate. The SA sensor operates as follows: Baseline: detected the baseline in AB, 150 s; Association: combined in the gradient concentration of drug diluent sample and blank (AB) for 90 s; Dissociation: dissociated in AB for 120 s; Regeneration: regenerated in NaOH (pH 10.5) for 5 s; Neutralization: neutralized in AB for 5 s. The regeneration and neutralization cycles were carried out for 3 times. The collected data were analyzed by the instrument data analysis software Acquisition 8.2. Taking Baseline acquisition signal as a baseline and subtracting the reference signal (double deduction of sample blank and sensor blank), the data were subject to group analysis and fitted.

T2 sequence (P08637 17-208 F176V): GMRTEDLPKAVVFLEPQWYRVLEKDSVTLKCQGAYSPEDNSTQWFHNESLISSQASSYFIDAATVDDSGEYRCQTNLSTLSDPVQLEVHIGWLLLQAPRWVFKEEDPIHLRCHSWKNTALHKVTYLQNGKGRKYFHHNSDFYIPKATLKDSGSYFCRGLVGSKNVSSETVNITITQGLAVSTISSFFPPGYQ

Binder | Kd [1] | Kd [2] | IC50 [3] | IC50 [4] | Kd [5] | Kd [6]
B1 | 16 nM | 14.3 nM | 13.3 nM | 16.8 nM | 12.7 nM | 
B2 |  |  |  |  |  | 25.7 nM
